Measurements as given in publication PMC9482650, “Quantitative fragmentomics allow affinity mapping of interactomes” (Nature Communications, 2022).

T1: PTPN13_1, Q12923
T1 sequence (Q12923 1088-1188, limits assumed, looked up): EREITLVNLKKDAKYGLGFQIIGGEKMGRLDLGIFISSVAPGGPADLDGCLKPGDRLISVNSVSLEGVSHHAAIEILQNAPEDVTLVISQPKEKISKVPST

T2: USH1C_1, Q9Y6N9
T2 sequence (Q9Y6N9 82-179, limits assumed, looked up): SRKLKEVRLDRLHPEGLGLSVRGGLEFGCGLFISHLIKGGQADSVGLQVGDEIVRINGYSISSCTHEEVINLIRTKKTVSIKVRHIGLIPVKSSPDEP

T3: PDZD2_5, O15018
T3 sequence (O15018 2617-2716, limits assumed, looked up): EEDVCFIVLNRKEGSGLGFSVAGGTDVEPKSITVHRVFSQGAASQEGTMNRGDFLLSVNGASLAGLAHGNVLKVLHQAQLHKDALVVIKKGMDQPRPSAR

T4: USH1C_2, Q9Y6N9
T4 sequence (Q9Y6N9 206-303, limits assumed, looked up): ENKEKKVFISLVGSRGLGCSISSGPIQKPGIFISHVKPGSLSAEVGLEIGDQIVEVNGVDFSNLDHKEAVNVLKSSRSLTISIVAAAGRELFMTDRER

T5: LNX2_1, Q8N448
T5 sequence (Q8N448 228-328, limits assumed, looked up): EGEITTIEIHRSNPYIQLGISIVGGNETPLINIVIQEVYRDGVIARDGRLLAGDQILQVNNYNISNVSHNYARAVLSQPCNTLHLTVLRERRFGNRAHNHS

T6: APBA3_2, O96018
T6 sequence (O96018 480-570, limits assumed, looked up): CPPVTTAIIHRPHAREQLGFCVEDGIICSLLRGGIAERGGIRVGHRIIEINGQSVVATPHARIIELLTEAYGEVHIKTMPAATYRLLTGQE

T7: MPDZ_2, O75970
T7 sequence (O75970 252-347, limits assumed, looked up): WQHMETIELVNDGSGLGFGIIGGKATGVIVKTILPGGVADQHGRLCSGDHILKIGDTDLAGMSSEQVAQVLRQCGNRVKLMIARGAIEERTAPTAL

T8: PDZD2_3, O15018
T8 sequence (O15018 581-682, limits assumed, looked up): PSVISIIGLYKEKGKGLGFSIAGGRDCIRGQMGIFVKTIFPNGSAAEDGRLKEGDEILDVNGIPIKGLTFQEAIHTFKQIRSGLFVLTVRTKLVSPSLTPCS

T9: SHROOM2, Q13796
T9 sequence (Q13796 21-118, limits assumed, looked up): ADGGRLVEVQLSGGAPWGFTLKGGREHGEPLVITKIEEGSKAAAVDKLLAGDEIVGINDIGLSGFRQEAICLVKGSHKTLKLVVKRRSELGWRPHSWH

T10: NHERF1_1, O14745
T10 sequence (O14745 9-104, limits assumed, looked up): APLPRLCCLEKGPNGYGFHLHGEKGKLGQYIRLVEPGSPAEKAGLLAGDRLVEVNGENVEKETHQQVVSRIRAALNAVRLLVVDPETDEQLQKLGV


What was measured:
Test in all cases: holdup assay
Set-up in all cases: key: below the threshold = too weak to quantify, mostly under pKd 3.1 to 4
[1] = biological target: DLG2_3, Q15700
[2] = biological target: T1, PTPN13_1, Q12923
[3] = biological target: GIPC2, Q8TF65
[4] = biological target: Inadl_7, Q8NI35; conditions: modified: phospho on T at position -2 from the C-terminal residue
[5] = biological target: T2, USH1C_1, Q9Y6N9; conditions: modified: phospho on T at position -2 from the C-terminal residue
[6] = biological target: T3, PDZD2_5, O15018; conditions: modified: phospho on T at position -2 from the C-terminal residue
[7] = biological target: PARD3B_3, Q8TEW8; conditions: modified: phospho on T at position -2 from the C-terminal residue
[8] = biological target: T4, USH1C_2, Q9Y6N9; conditions: modified: phospho on T at position -2 from the C-terminal residue
[9] = biological target: T5, LNX2_1, Q8N448; conditions: modified: phospho on T at position -2 from the C-terminal residue
[10] = biological target: T6, APBA3_2, O96018; conditions: modified: phospho on T at position -2 from the C-terminal residue
[11] = biological target: T7, MPDZ_2, O75970; conditions: modified: phospho on T at position -2 from the C-terminal residue
[12] = biological target: MAGI3_6, Q5TCQ9; conditions: modified: phospho on T at position -2 from the C-terminal residue
[13] = biological target: DLG5_2, Q8TDM6; conditions: modified: phospho on T at position -2 from the C-terminal residue
[14] = biological target: PTPN13_2, Q12923; conditions: modified: phospho on T at position -2 from the C-terminal residue
[15] = biological target: T8, PDZD2_3, O15018; conditions: modified: phospho on T at position -2 from the C-terminal residue
[16] = biological target: MAGI3_4, Q5TCQ9; conditions: modified: phospho on T at position -2 from the C-terminal residue
[17] = biological target: T9, SHROOM2, Q13796; conditions: modified: phospho on T at position -2 from the C-terminal residue
[18] = biological target: T10, NHERF1_1, O14745; conditions: modified: phospho on T at position -2 from the C-terminal residue
[19] = plain residues with an end cap or a label only (N-terminal biotin on a linker: ado-ado)
[20] = plain residues with an end cap or a label only (N-terminal biotin on a linker: ahx)
[21] = modified: phospho on T at position -2 from the C-terminal residue

Chain of GIPC2, Q8TF65 (Q8TF65 112-203): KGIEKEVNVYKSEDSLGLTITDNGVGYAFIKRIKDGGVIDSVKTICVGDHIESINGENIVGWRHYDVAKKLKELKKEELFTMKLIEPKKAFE
Chain of PARD3B_3, Q8TEW8 (Q8TEW8 490-594): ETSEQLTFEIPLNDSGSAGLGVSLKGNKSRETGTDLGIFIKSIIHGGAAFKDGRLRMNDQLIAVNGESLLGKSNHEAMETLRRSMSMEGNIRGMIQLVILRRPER
Chain of DLG5_2, Q8TDM6 (Q8TDM6 714-800): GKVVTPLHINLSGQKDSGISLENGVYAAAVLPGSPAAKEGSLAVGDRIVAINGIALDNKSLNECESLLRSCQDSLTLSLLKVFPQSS
Chain of MAGI3_4, Q5TCQ9 (Q5TCQ9 716-815): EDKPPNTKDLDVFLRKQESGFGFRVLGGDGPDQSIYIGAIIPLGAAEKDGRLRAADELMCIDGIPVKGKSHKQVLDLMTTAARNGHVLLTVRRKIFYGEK
Chain of Inadl_7, Q8NI35 (Q8NI35 1219-1332): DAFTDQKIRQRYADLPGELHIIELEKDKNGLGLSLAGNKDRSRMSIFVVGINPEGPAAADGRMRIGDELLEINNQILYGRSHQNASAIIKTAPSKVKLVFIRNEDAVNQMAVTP
Chain of PTPN13_2, Q12923 (Q12923 1363-1462): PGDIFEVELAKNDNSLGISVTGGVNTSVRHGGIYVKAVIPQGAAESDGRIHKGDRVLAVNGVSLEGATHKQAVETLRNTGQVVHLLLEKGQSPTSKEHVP
Chain of MAGI3_6, Q5TCQ9 (Q5TCQ9 1014-1103): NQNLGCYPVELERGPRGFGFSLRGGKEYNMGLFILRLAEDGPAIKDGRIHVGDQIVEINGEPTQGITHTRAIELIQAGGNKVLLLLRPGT

Row | Binder | pKd [1, 19] | pKd [2, 19] | pKd [3, 19] | further results
1 | EDPRVEVTQF [SLC22A9, Q8IVM8] | 3.71 | below the threshold | below the threshold | 
2 | EKQAKGDTEF [CACYBP, Q9HB71] |  |  |  | pKd [1, 20]: below the threshold; pKd [2, 20]: below the threshold; pKd [3, 20]: below the threshold
3 | TESNLQTSSC [CGN, Q9P2M7] |  |  |  | pKd [1, 20]: below the threshold; pKd [2, 20]: below the threshold; pKd [3, 20]: 3.78
4 | EKCGKEFSEF [PRKACA, P17612] | 3.74 | below the threshold | below the threshold | 
5 | EDLEDEWEVI [TECPR2, O15040] | 3.77 | below the threshold | below the threshold | 
6 | GTGYDRKDYV [CLDN3, O15551] | below the threshold | below the threshold | below the threshold | 
7 | ELSATVTTDC [TRIP6, Q15654] | 3.57 | below the threshold | below the threshold | 
8 | VLYPREGTEV [FOXI1, Q12951] | 3.9 | below the threshold | 3.49 | 
9 | PPGKHLVTEV [KCNA7, Q96RP8] | 4.71 | below the threshold | below the threshold | 
10 | TGLWKHETTV [ADGRA3, Q8IWK6] | 4.86 | below the threshold | 4.1 | 
11 | TRKRSGEAAV [PFKM, P08237] | below the threshold | below the threshold | below the threshold | 
12 | SSRTRRETQL [HPV16-E6_-2P, P03126] |  |  |  | pKd [4]: below the threshold; pKd [5]: below the threshold; pKd [6]: below the threshold; pKd [7]: below the threshold; pKd [8]: 4.45; pKd [1, 21]: below the threshold; pKd [9]: below the threshold; pKd [10]: below the threshold; pKd [11]: below the threshold; pKd [12]: below the threshold; pKd [13]: below the threshold; pKd [2, 21]: below the threshold; pKd [3, 21]: below the threshold; pKd [14]: below the threshold; pKd [15]: below the threshold; pKd [16]: below the threshold; pKd [17]: below the threshold; pKd [18]: below the threshold
13 | MHIQEKGFHV [EPHA6, Q9UF33] | below the threshold | below the threshold | below the threshold | 
14 | APSRKLNTEI [TIAM1, Q13009] |  |  |  | pKd [1, 20]: 3.66; pKd [2, 20]: below the threshold; pKd [3, 20]: below the threshold
15 | KPGKGSETVV [FZD4, Q9ULV1] | 4.01 | below the threshold | 3.57 | 
16 | LAHVKHKEQI [AQP3, Q92482] | below the threshold | below the threshold | below the threshold | 
17 | QKAPTKEFYA [SDC2, P34741] | 3.83 | below the threshold | below the threshold | 
18 | REEPDHSTEV [CCRL2, O00421] | below the threshold | below the threshold | 4.01 | 
19 | RSSGGDDFWF [KCNV1, Q6PIU1] | 3.6 | below the threshold | below the threshold | 
20 | SLNANEVEWF [RNF130, Q86XS8] | 3.73 | 3.5 | below the threshold | 
21 | DDASLPVSDV [PLEKHA1, Q9HB21] | below the threshold | below the threshold | below the threshold | 
22 | RDPPAEWTRV [PTPN18, Q99952] | 3.54 | below the threshold | below the threshold | 
23 | QSYPSKHDYV [CLDN18, P56856] | below the threshold | below the threshold | below the threshold | 
24 | QLSFNTDTLC [ABCA2, Q9BZC7] | 3.73 | below the threshold | below the threshold | 
25 | EPQYQPGENL [SRC, P12931] | below the threshold | below the threshold | below the threshold | 
26 | AAVENKVTDL [PLXNB1, O43157] | below the threshold | below the threshold | below the threshold | 
27 | APIAGFSSFV [SDK2, Q58EX2] | below the threshold | below the threshold | below the threshold | 
28 | PYPTADHMLA [JUP, P14923] | 3.77 | below the threshold | below the threshold | 
29 | DGVNEKVSCV [HTR2A, P28223] | 3.8 | below the threshold | below the threshold | 
30 | RFQQRMQTHV [KIRREL1, Q96J84] | 4.48 | below the threshold | below the threshold | 
